Measurements reported in patent US20230069055A1 (BOLT BIOTHERAPEUTICS, published 2023).
Residue numbers refer to the chain shown, from its start. Each block holds one binder with its values, some of them ahead of it.

What was measured:
[1] = target: PD-L1 on CHO-K1/PD-L1/alphaAPC stimulator cells (UniProt Q9NZQ7 19-290, limits assumed); experiment: cell-based or functional assay
[2] = target: T1, human PD-L1 (hPD-L1), endogenous on JIMT-1 cells (human, UniProt Q9NZQ7 19-290); experiment: flow cytometry, JIMT-1 cells with endogenous hPD-L1, fluorescent anti-human IgG Fc secondary, geometric MFI
T1 construct: The assay used endogenous hPD-L1 on JIMT-1 cells; also called programmed death-ligand 1; CD274
T1 sequence (Q9NZQ7 19-290 limits assumed): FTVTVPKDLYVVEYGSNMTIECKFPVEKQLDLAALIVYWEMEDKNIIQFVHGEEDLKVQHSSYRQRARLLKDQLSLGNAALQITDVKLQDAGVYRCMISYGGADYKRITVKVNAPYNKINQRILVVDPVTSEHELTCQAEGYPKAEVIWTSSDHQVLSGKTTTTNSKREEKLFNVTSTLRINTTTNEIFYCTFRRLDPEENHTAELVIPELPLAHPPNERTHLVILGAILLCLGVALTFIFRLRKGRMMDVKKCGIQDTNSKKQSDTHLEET
Protocol: Diluted binding agents were applied to JIMT-1 cells (˜1×10⁵-2×10⁵ per well) and incubated at 4° C. […] After unbound secondary antibody was washed out, cells were resuspended in FACS buffer plus 2% formaldehyde and analyzed by flow cytometry.

Chain of PD-L1 on CHO-K1/PD-L1/alphaAPC stimulator cells (Q9NZQ7 19-290 limits assumed): as above

- PD-L1/PD-1 blockade EC50 (nM) [1]: 1.13 nM
- PD-L1/PD-1 blockade EC50 (ng/ml) [1]: 164 ng/mL
B1: PD-L1 binding agent 15 (antibody, V domains shown)
VH: QVQLVQSGAEVKKPGASVKVSCKASGYTFTRHYVHWVRQAPGQGLEWMGWMNPNSGSAGYAQKFQGRVTMTRDTSTSTVYMELSSLRSEDTAVYYCARERGYNAFDYWGQGTLVTVSS
VL: EIVMTQSPATLSVSPGERATLSCRASQSLSSSYLAWYQQKPGQAPRLLIYGASTRATGIPARFSGSGSGTEFTLTISSLQSEDFAVYYCHQYFTTPLTFGQGTRLEIK

- PD-L1/PD-1 blockade EC50 (nM) [1]: 0.74 nM
- PD-L1/PD-1 blockade EC50 (ng/ml) [1]: 106 ng/mL
B2: PD-L1 binding agent 1 (antibody, V domains shown)
VH: QVQLVQSGAEVKKPGASVKVSCKASGYTFSSDYMHWVRQAPGQGLEWMGWMSPYNGITGYAQKFQGRVTMTRDTSTSTVYMELSSLRSEDTAVYYCARDRFSGSYDYWGQGTLVTVSS
VL: not shown

- PD-L1/PD-1 blockade EC50 (nM) [1]: 0.85 nM
- PD-L1/PD-1 blockade EC50 (ng/ml) [1]: 124 ng/mL
B3: PD-L1 binding agent 4 (antibody, V domains shown)
VH: QVQLVQSGAEVKKPGSSVKVSCKASGYTFTGYYIHWVRQAPGQGLEWMGGIIPIFGTASYAQKFQGRVTITADESTSTAYMELSSLRSEDTAVYYCARDGRFWSGYPDYWGQGTLVTVSS
VL: DIQMTQSPSSLSASVGDRVTITCRASQGISNYLAWYQQKPGKAPKLLIYRASNLESGVPSRFSGSGSGTDFTLTISSLQPEDFATYYCQQSYSTPLTFGGGTKVEIK

- binding result [2]: binds
B4: 13 (antibody, V domains shown)
VH: QVQLVQSGAEVKKPGASVKVSCKASGYTFTNYYMHWVRQAPGQGLEWMGWMSPSSGITGYAQKFQGRVTMTRDTSTSTVYMELSSLRSEDTAVYYCAREAWFGELSTWGQGTLVTVSS
VL: B3 VL with G28N, Y32F, A34N, R50A, N53S, E55Q, T94L, L96Y, G100Q

- PD-L1/PD-1 blockade EC50 (nM) [1]: 0.47 nM
- PD-L1/PD-1 blockade EC50 (ng/ml) [1]: 67.4 ng/mL
B5: PD-L1 binding agent 10 (antibody, V domains shown)
VH: QVQLVQSGAEVKKPGASVKVSCKASGYTFTGYYMHWVRQAPGQGLEWMGWMNPNGGTTGYAQNFQGRVTMTRDTSTSTVYMELSSLRSEDTAVYYCAREGFGPNAFDIWGQGTTVTVSS
VL: B3 VL with G28S, N31S, Y32W, R50A, E55Q, S91Y, L96Y, G100Q

- PD-L1/PD-1 blockade EC50 (nM) [1]: 0.67 nM
- PD-L1/PD-1 blockade EC50 (ng/ml) [1]: 97.3 ng/mL
B6: PD-L1 binding agent 9 (antibody, V domains shown)
VH: QVQLVQSGAEVKEPGASVKVSCKASGYTFTDHYLHWVRQAPGQGLEWMGWMNPNIGNTGYAQKFQGRVTMTRDTSTSTVYMELSSLRSEDTAVYYCAREPLQLGGFDYWGQGTLVTVSS
VL: B3 VL with Q27E, G28S, N31S, Y32W, R50A, N53S, E55Q, G100Q, V104L

- PD-L1/PD-1 blockade EC50 (nM) [1]: 0.73 nM
- PD-L1/PD-1 blockade EC50 (ng/ml) [1]: 106 ng/mL
B7: PD-L1 binding agent 6 (antibody, V domains shown)
VH: QVQLVQSGAEVKKPGASVKVSCKASGYTFTSHDINWVRQAPGQGLEWMGWMNPNSGNTGYAQKFQGRVTMTRDTSTSTVYMELSSLRSEDTAVYYCARDRWYMGSADYWGQGTLVTVSS
VL: B3 VL with G28S, N31T, Y32W, R50A, N53T, E55Q, L96F, G100Q

- binding result [2]: binds
B8: 12 (antibody, V domains shown)
VH: QVQLVQSGAEVKKPGASVKVSCKASGYTFTGYYMHWMRQAPGQGLEWIGWMSPYNGITGYAQKFQGRVTMTRDTSTSTVYMELSSLRSEDTAVYYCAREVIEVGMDVWGQGTTVTVSS
VL: B3 VL with G28S, N31S, Y32W, R50A, N53H, E55Q, L96Y, G100Q, K103R, V104L

- PD-L1/PD-1 blockade EC50 (nM) [1]: 1.15 nM
- PD-L1/PD-1 blockade EC50 (ng/ml) [1]: 166 ng/mL
B9: PD-L1 binding agent 14 (antibody, V domains shown)
VH: QVQLVQSGAEVKKPGASVKVSCKASGYNFSAYYVHWVRQAPGQGLEWMGWMNPNRGITDSAQKFQGRVTMTRDTSTSTVYMELSSLRSEDTAVYYCAREAYVAAFDIWGQGTTVTVSS
VL: B3 VL with N31S, Y32W, R50A, N53S, E55Q

- PD-L1/PD-1 blockade EC50 (nM) [1]: 0.37 nM
- PD-L1/PD-1 blockade EC50 (ng/ml) [1]: 53.6 ng/mL
B10: PD-L1 binding agent 11 (antibody, V domains shown)
VH: QVQLVQSGAEVKKPGASVKVSCKASGYTFTGYYMHWVRQAPGQGLEWMGWMNPNSGNTGYAQKFQGRVTMTRDTSTSTVYMELSSLRSEDTAVYYCARDSWYGDWFDPWGQGTLVTVSS
VL: B3 VL with G28S, I29V, S30G, N31S, Y32W, R50G, N53S, E55Q

- PD-L1/PD-1 blockade EC50 (nM) [1]: 0.37 nM
- PD-L1/PD-1 blockade EC50 (ng/ml) [1]: 54.3 ng/mL
B11: PD-L1 binding agent 5 (antibody, V domains shown)
VH: QVQLVQSGAEVKKPGASVKVSCKASGYTFSTHYMHWVRQAPGQGLEWMGWMNPNSGHAGSAQKFQGRVTMTRDTSTSTVYMELSSLRSEDTAVYYCARESIAVAGYDYWGQGTLVTVSS
VL: B3 VL with G28S, N31S, Y32W, R50A, N53T, E55Q, S56R, L96Y, G100Q, V104L

- binding result [2]: binds
B12: 49 (antibody, V domains shown)
VH: B6 VH with E13K, M51I
VL: B3 VL with Q27E, G28S, N31S, Y32W, R50A, N53S, E55Q, G100Q, V104L

- binding result [2]: binds
B13: 47 (antibody, V domains shown)
VH: B5 VH with M51I, G55S
VL: B3 VL with G28S, N31S, Y32W, R50A, E55Q, S91Y, L96Y, G100Q

- binding result [2]: binds
B14: 46 (antibody, V domains shown)
VH: B11 VH with M51I
VL: B3 VL with G28S, N31S, Y32W, R50A, N53T, E55Q, S56R, L96Y, G100Q, V104L

- PD-L1/PD-1 blockade EC50 (nM) [1]: 1.25 nM
- PD-L1/PD-1 blockade EC50 (ng/ml) [1]: 181 ng/mL
B15: PD-L1 binding agent 16 (antibody, V domains shown)
VH: QVQLVQSGAEVKKPGASVKVSCKASGYTLPNYIHWVRQAPGQGLEWMGWIHPRSGATGYAPKFQGRVTMTRDTSTSTVYMELSSLRSEDTAVYYCARDSVFGLDYWGQGTLVTVSS
VL: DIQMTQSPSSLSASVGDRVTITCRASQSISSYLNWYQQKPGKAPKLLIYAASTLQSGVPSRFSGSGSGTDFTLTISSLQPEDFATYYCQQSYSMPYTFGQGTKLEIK

- PD-L1/PD-1 blockade EC50 (nM) [1]: 0.33 nM
- PD-L1/PD-1 blockade EC50 (ng/ml) [1]: 47.3 ng/mL
B16: PD-L1 binding agent 3 (antibody, V domains shown)
VH: QVQLVQSGAEVKKPGASVKVSCKASGYTFSSYYMHWVRQAPGQGLEWMGWMTTNSGITGYAQKFQGRVTMTRDTSTSTVYMELSSLRSEDTAVYYCAREGYSSGLDYWGQGTLVTVSS
VL: not shown

- binding result [2]: binds
B17: 45 (antibody, V domains shown)
VH: B16 VH with M51I
VL: not shown

- PD-L1/PD-1 blockade EC50 (nM) [1]: 0.73 nM
- PD-L1/PD-1 blockade EC50 (ng/ml) [1]: 106 ng/mL
B18: PD-L1 binding agent 7 (antibody, V domains shown)
VH: B10 VH with G31S, S100D, Y102G
VL: DIQMTQSPSSLSASVGDRVTITCQASQDISNHLNWYQQKPGKAPKLLIYGASNLQRGVPSRFSGSGSGTDFTLTISSLQPEDFATYYCQQSYSTPITFGQGTRLEIK

- binding result [2]: binds
B19: 48 (antibody, V domains shown)
VH: B10 VH with G31S, M51I, S100D, Y102G, P108Y
VL: B18 VL
